From patent publication US20220213193A1 (BROWN UNIVERSITY, published 2022) come the findings set out here.

In the test the target is T1, recombinant human (rh) CHI3L1 (human, UniProt P36222 22-383).
T1 construct: also called rhCHI311; human CHI3L1
In words: competitive ELISA on recombinant antigen.

T1 sequence (P36222 22-383 limits assumed): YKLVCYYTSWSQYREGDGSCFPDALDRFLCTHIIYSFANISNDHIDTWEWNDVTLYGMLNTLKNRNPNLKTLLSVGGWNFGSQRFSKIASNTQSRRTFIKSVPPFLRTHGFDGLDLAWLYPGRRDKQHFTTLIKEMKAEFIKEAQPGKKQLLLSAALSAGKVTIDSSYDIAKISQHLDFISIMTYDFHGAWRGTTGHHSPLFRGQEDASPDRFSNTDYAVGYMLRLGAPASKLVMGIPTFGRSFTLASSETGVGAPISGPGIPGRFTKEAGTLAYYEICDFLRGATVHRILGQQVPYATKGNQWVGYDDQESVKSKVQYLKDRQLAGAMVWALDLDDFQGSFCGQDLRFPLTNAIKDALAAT

B1: anti-human CHI3L1 antibody FRG (antibody, V domains shown)
VH: QIQLVQSGPELKKPGETVKISCKASGYTFTNYGMNWVKQAPGKGLKWMGWINTYTGEPTYADDFKGRFAFSLETSASTAYLQINNLRNEDMSTYFCARLGYGKFYVMDYWGQGTSVTVSS
VL: DVVMTQTPLSLPVSLGDQASISCRSSQSLVHSNGNTYLHWYLQKPGQSPKLLIYKVSNRFSGVPDRFSGSGSGTDFTLKISRVEAEDLGVYFCSQSTHVTWTFGGGTKLEIK
notes: also called anti-CHI3L1; α-CHI3L1
Usually Kd stands for the concentration at which binding is half-saturated. B1: the Kd is roughly 1 nM.
